Reference: publication PMC3229523, “Identification of Lactoferricin B Intracellular Targets Using an Escherichia coli Proteome Chip” (PLoS ONE, 2011)
Ends that are not written are not given here. * marks the point of attachment. Biotin = O=C1N[C@H]2[C@H](CS[C@H]2CCCCC(=O)*)N1

Legend:
Experiment in all cases: peptide or protein array; E. coli proteome chip: purified His-tagged proteins printed in duplicate on Fullmoon slides, blocked with 1% BSA; 10 nM N-terminal biotinylated LfcinB with 1% BSA, room temperature, 1 h; detected with DyLight 649-labeled streptavidin, ratio to DyLight 549-labeled anti-His antibody; ProCAT normalisation, local cut-off; triplicate chips
Settings in all cases: both partners purified
YjeJ = molecular target: T1, YjeJ (E. coli K-12, UniProt P39279 1-289)
T1 construct: YjeJ, E. coli K-12
T1 sequence (looked up): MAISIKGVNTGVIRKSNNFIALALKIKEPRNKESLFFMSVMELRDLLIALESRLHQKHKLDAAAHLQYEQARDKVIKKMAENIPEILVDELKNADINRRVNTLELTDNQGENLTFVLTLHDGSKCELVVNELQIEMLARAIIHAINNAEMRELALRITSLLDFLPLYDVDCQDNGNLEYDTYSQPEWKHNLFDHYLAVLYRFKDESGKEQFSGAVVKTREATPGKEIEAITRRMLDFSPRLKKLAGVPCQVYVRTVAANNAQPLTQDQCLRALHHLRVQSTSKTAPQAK

YfbR = molecular target: T2, YfbR (E. coli K-12, UniProt P76491 1-199)
T2 construct: YfbR, E. coli K-12
T2 sequence (looked up): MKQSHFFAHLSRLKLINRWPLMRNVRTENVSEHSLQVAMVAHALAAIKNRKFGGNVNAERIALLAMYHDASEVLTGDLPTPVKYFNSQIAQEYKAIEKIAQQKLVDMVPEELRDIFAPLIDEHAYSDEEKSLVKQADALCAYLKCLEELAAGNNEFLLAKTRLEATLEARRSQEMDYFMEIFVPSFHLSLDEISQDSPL

YchA = molecular target: T3, YchA (E. coli K-12, UniProt P0AGM5 1-269)
T3 construct: YchA, E. coli K-12
T3 sequence (looked up): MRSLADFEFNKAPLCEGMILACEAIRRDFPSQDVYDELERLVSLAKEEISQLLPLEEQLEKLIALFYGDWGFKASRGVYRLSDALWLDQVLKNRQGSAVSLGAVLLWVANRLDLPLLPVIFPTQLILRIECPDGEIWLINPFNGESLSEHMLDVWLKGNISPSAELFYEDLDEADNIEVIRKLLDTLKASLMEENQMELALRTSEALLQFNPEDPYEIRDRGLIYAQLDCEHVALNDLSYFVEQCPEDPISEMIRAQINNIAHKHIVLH

DnaT = molecular target: T4, DnaT (E. coli K-12, UniProt P0A8J2 1-179)
T4 construct: DnaT, E. coli K-12
T4 sequence (looked up): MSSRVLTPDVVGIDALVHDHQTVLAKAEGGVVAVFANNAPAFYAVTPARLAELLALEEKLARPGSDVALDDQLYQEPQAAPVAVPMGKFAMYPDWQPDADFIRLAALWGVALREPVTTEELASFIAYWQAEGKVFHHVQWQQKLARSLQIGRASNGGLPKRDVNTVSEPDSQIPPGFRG

HemC = molecular target: T5, HemC (E. coli K-12, UniProt P06983 1-313)
T5 construct: HemC, E. coli K-12
T5 sequence (looked up): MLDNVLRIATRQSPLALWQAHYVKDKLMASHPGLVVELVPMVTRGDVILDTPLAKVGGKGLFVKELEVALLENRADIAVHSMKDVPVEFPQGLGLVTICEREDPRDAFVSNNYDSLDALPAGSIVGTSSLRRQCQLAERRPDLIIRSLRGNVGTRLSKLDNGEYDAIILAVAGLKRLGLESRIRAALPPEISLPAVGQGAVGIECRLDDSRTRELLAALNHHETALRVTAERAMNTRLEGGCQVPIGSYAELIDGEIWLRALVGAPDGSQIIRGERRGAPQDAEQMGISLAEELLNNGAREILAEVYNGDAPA

RfaS = molecular target: T6, RfaS (E. coli K-12, UniProt P27126 1-311)
T6 construct: RfaS, E. coli K-12
T6 sequence (looked up): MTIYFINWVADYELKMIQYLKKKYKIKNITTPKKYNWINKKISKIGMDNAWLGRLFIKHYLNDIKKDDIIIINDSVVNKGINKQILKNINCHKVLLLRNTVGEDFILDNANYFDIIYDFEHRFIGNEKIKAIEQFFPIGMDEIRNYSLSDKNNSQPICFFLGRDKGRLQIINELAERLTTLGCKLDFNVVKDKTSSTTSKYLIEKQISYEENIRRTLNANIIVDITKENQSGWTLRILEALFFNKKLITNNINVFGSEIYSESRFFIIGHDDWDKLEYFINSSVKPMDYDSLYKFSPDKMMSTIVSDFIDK

Measured: binding result

B1: N-terminal biotinylated Lactoferricin B (peptide, UniProt P24627 36-60, looked up)
peptide: Biotin-FKCRRWQWRMKKLGAPSITCVRRAF
modifications: ends and bridges not checked
notes: lactoferricin B (LfcinB), cationic antimicrobial peptide of 25 amino acids; also called biotinylated LfcinB; biotin-labeled LfcinB; source: bought: Kelowna Inc
binds: all assays above
